From PMC5980995, “An allostatic mechanism for M2 pyruvate kinase as an amino-acid sensor” (Biochemical Journal, 2018)

Target: the molecule itself
Test: cell-based or functional assay

B1: M2 isoenzyme of pyruvate kinase (M2PYK), human, N-terminal His6 tag (enzyme)
chain: not shown
half-life of the loss of enzyme activity (LDH-coupled assay) after dilution from 20 mg/ml to 0.002 mg/ml in PBS-CM pH 7.4, taken as dissociation of the tetramer: ~15 min
